Results from patent publication US20140308685A1 (SHINO TEST, published 2014).

Assays:
[1] = molecular target: T1, periostin (S2 recombinant periostin protein tagged with V5/His) (Homo sapiens (Human), UniProt Q15063 22-836, limits assumed); assay: ELISA on immobilized antigen (5 ug/mL), A405; bound if difference to control well is 0.2 or more
T1 construct: also called osteoblastic specific factor 2; OSF2
T1 sequence: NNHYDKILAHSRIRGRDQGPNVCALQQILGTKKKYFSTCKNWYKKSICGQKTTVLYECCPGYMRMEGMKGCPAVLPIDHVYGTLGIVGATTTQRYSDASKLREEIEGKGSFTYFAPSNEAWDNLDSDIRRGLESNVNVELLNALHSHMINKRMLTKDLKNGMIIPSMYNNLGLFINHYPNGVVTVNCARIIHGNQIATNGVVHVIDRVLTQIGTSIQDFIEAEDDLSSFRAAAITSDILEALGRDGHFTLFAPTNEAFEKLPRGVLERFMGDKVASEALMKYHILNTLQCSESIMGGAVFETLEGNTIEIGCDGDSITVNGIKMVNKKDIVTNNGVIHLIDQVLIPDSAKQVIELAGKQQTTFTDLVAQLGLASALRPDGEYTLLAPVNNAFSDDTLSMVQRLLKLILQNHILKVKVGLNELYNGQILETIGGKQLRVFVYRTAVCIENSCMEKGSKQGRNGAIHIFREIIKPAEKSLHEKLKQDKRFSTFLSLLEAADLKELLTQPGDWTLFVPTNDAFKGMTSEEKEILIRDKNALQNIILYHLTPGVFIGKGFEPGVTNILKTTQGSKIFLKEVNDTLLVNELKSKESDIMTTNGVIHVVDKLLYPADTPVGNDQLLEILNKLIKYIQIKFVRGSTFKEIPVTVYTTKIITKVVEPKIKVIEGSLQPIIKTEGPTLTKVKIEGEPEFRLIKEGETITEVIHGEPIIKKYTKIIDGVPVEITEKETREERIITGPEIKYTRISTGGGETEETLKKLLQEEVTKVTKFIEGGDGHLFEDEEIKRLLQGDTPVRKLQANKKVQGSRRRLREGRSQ
Description: (8) Subsequently, the absorbance in each well of the microtiter plate in (7) at 405 nm was measured with a spectrophotometer.
Based on the measurement results of the absorbance, if the difference between the obtained measured values of absorbance in the well immobilizing periostin or a partial-length periostin and the measured values of absorbance in the control well (into which phosphate-buffered saline was poured instead of periostin or partial-length periostins) is 0.2 or more, an anti-periostin monoclonal antibody was determined to have bound to the periostin or the partial-length periostin immobilized to the well of the microtiter plate.

[2] = molecular target: T2, partial-length periostin (EMI region) (Homo sapiens (Human), UniProt Q15063 22-110, limits assumed); assay: ELISA on immobilized antigen, POD-labeled anti-mouse IgG, A405
T2 sequence: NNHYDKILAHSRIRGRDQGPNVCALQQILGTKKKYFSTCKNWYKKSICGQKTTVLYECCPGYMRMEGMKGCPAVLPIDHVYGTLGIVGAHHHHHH

[3] = molecular target: T3, partial-length periostin (C-terminal region) (Homo sapiens (Human), UniProt Q15063 632-836, limits assumed); assay: as above
T3 sequence: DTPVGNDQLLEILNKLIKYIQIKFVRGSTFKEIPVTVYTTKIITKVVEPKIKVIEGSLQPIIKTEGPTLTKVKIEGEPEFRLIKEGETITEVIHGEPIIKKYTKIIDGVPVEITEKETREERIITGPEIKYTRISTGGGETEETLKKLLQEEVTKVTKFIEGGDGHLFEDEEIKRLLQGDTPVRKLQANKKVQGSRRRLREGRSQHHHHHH

[4] = molecular target: T4, partial-length periostin (R2 region) (Homo sapiens (Human), UniProt Q15063 235-378, limits assumed); assay: as above
T4 sequence: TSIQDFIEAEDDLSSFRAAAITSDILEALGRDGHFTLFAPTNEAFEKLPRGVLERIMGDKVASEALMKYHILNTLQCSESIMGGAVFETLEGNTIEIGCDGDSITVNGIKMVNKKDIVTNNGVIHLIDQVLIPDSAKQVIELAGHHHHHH

[5] = molecular target: T5, partial-length periostin (R1/R2 regions) (Homo sapiens (Human), UniProt Q15063 111-378, limits assumed); assay: as above
T5 sequence: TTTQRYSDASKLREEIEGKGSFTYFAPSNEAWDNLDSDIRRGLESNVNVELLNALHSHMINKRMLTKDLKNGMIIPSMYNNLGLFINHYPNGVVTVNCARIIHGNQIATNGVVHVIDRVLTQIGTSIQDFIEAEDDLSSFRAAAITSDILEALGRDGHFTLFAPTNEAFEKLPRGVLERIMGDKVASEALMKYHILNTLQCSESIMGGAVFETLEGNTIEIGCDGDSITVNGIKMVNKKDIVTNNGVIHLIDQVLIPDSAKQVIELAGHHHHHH

[6] = molecular target: T6, partial-length periostin (R4 region) (Homo sapiens (Human), UniProt Q15063 496-631, limits assumed); assay: as above
T6 sequence: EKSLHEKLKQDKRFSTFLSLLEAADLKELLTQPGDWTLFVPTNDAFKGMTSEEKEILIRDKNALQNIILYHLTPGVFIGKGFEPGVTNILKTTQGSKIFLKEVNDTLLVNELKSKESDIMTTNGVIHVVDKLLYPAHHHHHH

B1: anti-periostin monoclonal antibody (SS19D) (antibody, V domains shown)
VH: QVQLQQPGSELVKPGASVKLSCKASGYTFTSYWMHWVKQSPGQGLEWIGEINPSNGRTNYNEKFKTKATLTVDKSSSTAYMQLNSLTSEDSAVYYCVRGDEGFAYWGQGTLVTVSA
VL: NIVLTQSPASLAVSLGQRATISCSASESVDSYGRSFIHWFQQKPGQPPKLLIYLASYLESGVPARFSGSGSRTDFTLTIDPVEADDAATYYCHQNNEDPPTFGGGAKLEIKR
B1: binds [1]; no binding [2]; no binding [3]. B1: no binding [4]; no binding [5]; no binding [6].
